This assay concerns the target thrombin. The experiment in a line: cell-based or functional assay.

Consider five substances from patent EP1676860A1.

Take “ATIII MS705 peak (2) fraction (recombinant human antithrombin III produced by the FUT8 gene-double-knockout CHO/DG44 transformant pKAN-ATIII AFMS705, heparin-affinity peak (2)) (from UniProt P01008 33-464)”: the Secondary rate constant (+ hep): thrombin inhibition secondary rate constant in the presence of heparin came out at 2.5e+07 M⁻¹ s⁻¹.

With “ATIII MS705 peak (3) fraction (recombinant human antithrombin III produced by the FUT8 gene-double-knockout CHO/DG44 transformant pKAN-ATIII AFMS705, heparin-affinity peak (3)) (from UniProt P01008 33-464)”, the Secondary rate constant (+ hep): thrombin inhibition secondary rate constant in the presence of heparin was 2.6e+07 M⁻¹ s⁻¹ and the Secondary rate constant (- hep): thrombin inhibition secondary rate constant in the absence of heparin came to 8800 M⁻¹ s⁻¹.

For the substance “ATIII DG44 peak (2) fraction (recombinant human antithrombin III produced by the CHO/DG44 transformant pKAN-ATIII AFDG44, heparin-affinity peak (2)) (from UniProt P01008 33-464)”, the Secondary rate constant (+ hep): thrombin inhibition secondary rate constant in the presence of heparin is 2e+07 M⁻¹ s⁻¹ and the Secondary rate constant (- hep): thrombin inhibition secondary rate constant in the absence of heparin came to 8600 M⁻¹ s⁻¹.

Turning to “Neuart (human plasma-derived antithrombin III preparation, manufactured by Mitsubishi Pharma Corporation) (from UniProt P01008 33-464)”, the Secondary rate constant (+ hep): thrombin inhibition secondary rate constant in the presence of heparin came out at 2.3e+07 M⁻¹ s⁻¹ and the Secondary rate constant (- hep): thrombin inhibition secondary rate constant in the absence of heparin is 8200 M⁻¹ s⁻¹.

As to “ATIII DG44 peak (1) fraction (recombinant human antithrombin III produced by the CHO/DG44 transformant pKAN-ATIII AFDG44, heparin-affinity peak (1)) (from UniProt P01008 33-464)”, the Secondary rate constant (+ hep): thrombin inhibition secondary rate constant in the presence of heparin is 8.7e+06 M⁻¹ s⁻¹ and the Secondary rate constant (- hep): thrombin inhibition secondary rate constant in the absence of heparin was 7700 M⁻¹ s⁻¹.
